Experimental data taken from article PMC3942423 (Nature chemical biology, 2009).

What was measured:
[1] = substrate: O=[N+]([O-])c1ccc(O[C@H]2O[C@H](CO)[C@@H](O)[C@H](O)[C@@H]2O)cc1; assay: 4NP-Man hydrolysis kinetics; assay type: biochemical, Bacteroides thetaiotaomicron; conditions: other: substrate 4NP-Man
[2] = substrate: OC[C@H]1O[C@H](O[C@@H]2[C@H](O)[C@@H](O)O[C@H](CO)[C@H]2O)[C@@H](O)[C@@H](O)[C@@H]1O; assay: purified protein, by the assay type; conditions: other: most active mannobiose substrate, pH 7.0, 37.0 °C
[3] = substrate: OC[C@H]1O[C@H](O[C@H]2[C@@H](O)[C@H](O)[C@@H](CO)O[C@@H]2O)[C@@H](O)[C@@H](O)[C@@H]1O; assay: mannobiose hydrolysis kinetics; assay type: biochemical, Bacteroides thetaiotaomicron; conditions: other: most active mannobiose substrate

B1: Bt3858 (Bacteroides thetaiotaomicron VPI-5482) (protein)
chain: HTDQTPTKDFVDYVNPYIGNISHLLVPTYPTVHLPNSMLRVYPERGDYTSDRVNGLPVVVTSHRGSSAFNLSPVQGEVSRPIVSYSYDLENITPYSYSVYLDEADIQVEYAPSHQAGIYHISFGTEGDNALVVNTKNGKLVAEEKGVSGYQVIDNTPTKIYLYLETSQLPLRKGVLADGKVDMESKEGSAIALYYGSEKNLNLRYGISFISAEQAKKNLQRDITTYDVKAVADAGRRIWNKTLGKIVIEGGSEDEKEIFYTSLYRTYERMINLSEDGKYYSAFDGKIHEDGGVPFYTDDWIWDTYRATHPLRILIEPQKELDMIRSYIRMAEQSDRRWMPTFPEVTGDSHRMNGNHAVAVIWDAYCKGLKDFDLEAAYEACKGAITEKTLLPWLRCPLTELDKFYQEKGFFPALNPGEEETCKAVHSFERRQAVAVMLGNCYDNWCLAQIARTLNKTDDYKKFMRMSYTYRNVYNAETGFFHPKNKDGKFIEPFDYRYSGGQGARGYYGENNGWIYRWDVQHNPADLIALMGGQASFIERLNQTFNEPLGRSKFDFYHQLPDHTGNVGQFSMANEPCLHIPYLYNYAGQPWMTQKRIRVLLNQWFRNDLMGVPGDEDGGGMTAFVVFSMMGFYPVTPGSPTYNIGSPVFQSAKMEVGDGHYFEIIAENYAPDHKYIQSATLNGTPWNKPWFSHADIQNGGRLVLQMGDKPNKKWGIASDAVPPSSESLPE
B1 gave a Km ([1]; enzyme Bt3858, pH 7.0) of 270 ± 65 µM, a kcat ([1]; enzyme Bt3858, pH 7.0) of 0.000417 ± 1.67e-05 s⁻¹ and a kcat/Km ([1]; enzyme Bt3858, pH 7.0) of 1.57 M⁻¹ s⁻¹. It also gave a Km ([2]; enzyme Bt3858) of 1400 ± 170 µM, a kcat ([2]; enzyme Bt3858) of 40 s⁻¹ and a kcat/Km ([2]; enzyme Bt3858) of 28300 M⁻¹ s⁻¹.

B2: Bt3773 (Bacteroides thetaiotaomicron VPI-5482) (protein)
chain: KQDYSKSEGLLQYVDPYIGSGFHGHVFVGTSVPYGMVQLGPNNIHKGWDWCSGYHYSDSILIGFSHTHLSGTGCTDLGDILIMPLNEIRTPRGNQDDIRDGYASKYSHDNEIARPEYYSLILDRYNIKAELTATDRVGFHRYTYPEGKPVSILIDLREGNGSNAYDSYIRKVDDYTVEGYRYVRGWSPSRKVYFVLKSDQKIEKFTAYDDNTPKLWDQLKVESVKSVLTFGNVKEVKIKVAISSVSCDNAAMNLQAELSHWDFDKVVKMSSDRWNKQLDKMTVESDDEAAKRVFYTAHYHTMIAPTLYCDVNGEYRGMNDMIYTDPKKANYTTLSLWDTYRALNPLMTIIQPEMVDNVINSMLSIYRQQDKLPIWPLMSGETNCMPGYSSVPVIADAYLKGFTGFDAEEALTAMKATATYEGQNGVPYVMAKGYIPADKIHEATSIAMEYAVDDWGIAAMAQKMGKTADYETFSKRAHYYKNYFDSSIHFIRPKLEDGSWRTPYDPARSIHGVGDFCEGNGWQYTFFAPQDPYGLISLFGGDKPFTSKLDSFFTNNDSMGEGASSDITGLIGQYAHGNEPSHHIAYLYTYAGEQWKTAEKVRFIMSDFYTDQPDGIIGNEDCGQMSAWYLLSAMGFYQVNPSDGVFAFGSPRFKKIEVKVRGGKVFTVEAPNNSKDNIYIQKVYLNGKPYHKSYITYDDIINGSTLKFEMGKKPAKNFGKASANRPIVLNK
B2 gave a Km ([2]; enzyme Bt3773) of 2500 ± 370 µM, a kcat ([2]; enzyme Bt3773) of 0.0183 s⁻¹ and a kcat/Km ([2]; enzyme Bt3773) of 7.5 M⁻¹ s⁻¹.

B3: Bt1769 (Bacteroides thetaiotaomicron VPI-5482) (protein)
chain: CNGSLQTADRTPVDYVNPYIGNISHLLVPTFPTIQLPNSMLRVYPERADYTSELLKGLPLIVTNHRERSAFNFSPYQGEKLRPVITYNYDNEHITPYSFDVELDDNRMKAEYALSHQSAIYRITYEADKPAYLIVNSRNGSIHANENFISGRQQLNDNTNVYVYIEAQEKPISAGILENGTIETSKDNAEGANACAAWRFADGTTTVNLRYGISFISEEQAEKNLHRELKDYNIKALAEAGRQIWNETLGRIQVEGGTEDDKTVFYSSFYRTFERPICMSEGGRYFSAFDGKVHEDNGTPFYTDDWIWDTYRAAHPLRTLIDQQKEEDIIASYLRMAEQMGNMWMPTFPEVTGDTRRMNSNHAVATVADALAKGLKVDTAKAYEACRKGIEEKTLAPWSGAPAGWLDNFYRENGYIPALRVDEPENDPNVHPFEKRQPVAVTLGTSYDQWCLSRIAQALNKKEEAEYYLKCSYNYRNLYNKETAFFHPKDKEGQWIEPFDYRFPGGMGAREYYGENNGWVYRWDVPHNVADLISLMGGNEQFIANLDRTFTEPLGRSKYAFYAKLPDHTGNVGQFSMANEPSLHVPYLYNYAGQPWKTQKRIRQMLKTWFRNDLMGIPGDEDGGGMTSFVVFSSLGFYPVTPGLPAYTIGSPLFTDAKIRLSNGAVFEIEAKNASTDNKYIQSATLNGKEWNKSWFSHDDLMSGGKLVLVMGNKPNKTWASGAEDVPPSLEIK
For B3, the Km ([2]; enzyme Bt1769) was 1300 ± 140 µM, the kcat ([2]; enzyme Bt1769) was 63.3 s⁻¹ and the kcat/Km ([2]; enzyme Bt1769) was 48300 M⁻¹ s⁻¹.

B4: Bt2199 (Bacteroides thetaiotaomicron VPI-5482) (protein)
chain: MVTRLFFLSICFPFLLTSCQQSKKTVEFVDYVNPLMGTESTFAFSHGNTYPAVAVPWGMNFWSPQTGENGSGWMYTYTDSLMRGFRQTHQPSPWINDYGTFSIMPLAGELKMSHKERLVPFSHQQEKATPYNYSVTFNNGLQTSLSATSRGAVFEVSFPEKEDQYVVVDAYNGGSSITIEPEKRLVKGATRYNNGGVPDNFANYFMMEFSHPVIEYGTYNGDTLLHHQTDVAADYTCAYLKFDVPAGEKLTIRTASSFISPEQAAINFNREVADADVQLISGKAREQWNNYLGRVEAEGGTDEQLRTFYSCLYRTLLFPREFYEFDSQGNPVYYSPYDGNVHDGYMYTDNGFWDTFRAVHPLFTLLYPEVSERVTQSIINAYNESGFMPEWASPGHRGCMIGNNSVSLLVDAWMKGIQTVDAEKALEAMIHQTQARHAEIASVGRDGFEYYDKLGYVPYPEVPEATAKTLEYAYADWCIARFAESLGKQDIADQYYQKAPNYRNLYYPEHGFMWTKDAKGNWRDRFDATEWGGPFTEGSSWHWTWSVFHDPEGLSELMGGHEPMIARLDSMFVAPNTYNYGTYGFVIHEIAEMVALNMGQYAHGNQPVQHAIYLYDYIGQPWKTQYHLRNVMDKLYNSGSKGYCGDEDNGQTSAWYVFSAMGFYPVCPGMPEYAIGSPLFKKVTLHLPEGKNFVVSAADNAADRPYIRKALLNGQEFTRNYLTHDELKQGGELNLSMDSVPNQQRGTQPADFPYSYSK
B4 showed a kcat ([3]; enzyme Bt2199, pH 7.0) of 40 ± 2.33 s⁻¹, a kcat/Km ([3]; enzyme Bt2199, pH 7.0) of 60000 M⁻¹ s⁻¹ and a kcat ([1]; enzyme Bt2199, pH 7.0) of 0.105 ± 0.00483 s⁻¹. For the same protein, the kcat/Km ([1]; enzyme Bt2199, pH 7.0) was 14 M⁻¹ s⁻¹.

B5: Bt3990 (Bacteroides thetaiotaomicron VPI-5482) (protein)
chain: KDWTQYVNPLMGSQSTFELSTGNTYPAIARPWGMNFWTPQTGKMGDGWQYTYTANKIRGFKQTHQPSPWINDYGQFSIMPIVGQPVFDEEKRASWFAHKGEVATPYYYKVYLAEHDIVTEMTPTERAVLFRFTFPENDHSYVVVDAFDKGSYIKIIPEENKIIGYTTRNSGGVPENFKNYFIIEFDKPFTYKATVENGNLQENVAEQTTDHAGAIIGFKTRKGEQVNARIASSFISFEQAAANMNELGKDNIEQLAQKGKDAWNQVLGKIEVEGGNLDQYRTFYSCLYRSLLFPRKFYELDANGQPIHYSPYNGQVLPGYMFTDTGFWDTFRCLFPLLNLMYPSVNKEMQEGLINTYLESGFFPEWASPGHRGCMVGNNSASILVDAYMKGVKVDDIKTLYEGLIHGTENVHPEVSSTGRLGYEYYNKLGYVPYDVKINENAARTLEYAYDDWCIYRLAKELKRPKKEISLFAKRAMNYKNLFDKESKLMRGRNEDGTFQSPFSPLKWGDAFTEGNSWHYTWSVFHDPQGLIDLMGGKEMFVTMMDSVFAVPPIFDDSYYGQVIHEIREMTVMNMGNYAHGNQPIQHMIYLYDYAGQPWKAQYWLRQVMDRMYTPGPDGYCGDEDNGQTSAWYVFSALGFYPVCPGTDEYVMGTPLFKKATLHFENGNSLVIDAPNNSTENFYIDSMSFNGADHTKNYLRHEDLFKGGTIKVDMSNRPNLNRGTKEEDMPYSFSKE
In the case of B5, the Km ([3]; enzyme Bt3990, pH 7.0) is reported as 760 ± 110 µM, the kcat ([3]; enzyme Bt3990, pH 7.0) is reported as 86.7 ± 5 s⁻¹ and the kcat/Km ([3]; enzyme Bt3990, pH 7.0) is reported as 113000 M⁻¹ s⁻¹. For the same protein, the Km ([1]; enzyme Bt3990, pH 7.0) was 4200 ± 420 µM, the kcat ([1]; enzyme Bt3990, pH 7.0) was 0.0933 ± 0.00467 s⁻¹ and the kcat/Km ([1]; enzyme Bt3990, pH 7.0) was 21.7 M⁻¹ s⁻¹.

B6: Bt3962 (Bacteroides thetaiotaomicron VPI-5482) (protein)
chain: QKQPVDYVNPLMGTDSKISLSNGNTYPAIALPWGMNFWMPQTGKMGDGWAYTYASDKIRGFKQTHQPSPWINDYGQFSIMPMTKQLKIDQDSRASWFSHKAEKATPYYYSVYLSEYNMTTEIAPTERCAYFRFTFPEASDAYVVVDAFDRGSYVKVIPEENKIVGYTTRNSGGVPQNFRNYFVIEFDKPFTFNKVWADYHLVETHLELQSNHVGAAIGFSTKKGEQVHAKVASSFISPEQAELNLKEIGNKTFEQTKEAGRKAWNDVLGRIKVEDDDENRMRTFYSCLYRSVLFPRMFHEVNAKGETVHYSPYNGEIRPGYMFTDTGFWDTFRCLFPFVNLIYPSMGEKMQEGLLNTYLESGFFPEWASPGHRGCMVGNNSASVVADAFMKNVTKADAEKMYEGLLKGANSVHPRVSTTGRRGYEYYNKLGYVPYDVKINENAARTLEYAYDDWCIYRMGEKLGRPAEELELYKSRSQNYRNLFDPETKLMRGKNADGTFQTPFNPFKWGDAFTEGNSWHYTWSVFHDVQGLADLMGGRKMFVSMLDSVFNLPPIFDDSYYGGVIHEIREMEIANMGNYAHGNQPIQHMIYLYNYAGEPWKAQYWLREVMNRLYFATPDGYCGDEDNGQTSAWYVFTALGFYPVCPGSNEYVMGAPYFKKATITLENGKKLEISAPKNSDANRYIRSLNYNGKNYTKNYLNHFDLLKGGRLVFDMDNKPNKGRGINESDFPYSFSRDNK
B6 gave a Km ([3]; enzyme Bt3962, pH 7.0) of 430 ± 52 µM, a kcat ([3]; enzyme Bt3962, pH 7.0) of 13.7 s⁻¹ and a kcat/Km ([3]; enzyme Bt3962, pH 7.0) of 31700 M⁻¹ s⁻¹. For the same protein, the Km ([1]; enzyme Bt3962, pH 7.0) was 5000 ± 840 µM, the kcat ([1]; enzyme Bt3962, pH 7.0) was 0.283 ± 0.0267 s⁻¹ and the kcat/Km ([1]; enzyme Bt3962, pH 7.0) was 56.7 M⁻¹ s⁻¹.
